Legend:
Conditions in all cases: ligand 5 micrograms per well; dilutions of initial fusion protein solution; FIG. 7
amphoterin = target: T1, amphoterin (Homo sapiens, UniProt P09429); test: In vitro ligand binding assay (ELISA), immobilized amphoterin
T1 sequence (P09429 1-215): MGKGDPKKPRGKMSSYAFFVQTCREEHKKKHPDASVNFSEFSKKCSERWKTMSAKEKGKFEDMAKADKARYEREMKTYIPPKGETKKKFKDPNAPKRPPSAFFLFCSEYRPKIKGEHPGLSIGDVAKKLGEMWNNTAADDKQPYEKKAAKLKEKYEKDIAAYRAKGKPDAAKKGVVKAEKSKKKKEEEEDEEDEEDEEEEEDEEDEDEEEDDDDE
Method: (§1) For example, the fusion protein may be used in a binding assay to identify potential ligands that bind to the non-immunoglobulin protein. In one example embodiment of such a binding assay, a known ligand may coated onto a solid substrate (e.g., Maxisorb plates) at a biologically relevant concentration (e.g., about 5 micrograms per well), where each well contains a total volume of about 100 microliters (μL). The plates may be incubated at 4° C. overnight to allow the ligand to bind to the substrate. Alternatively, shorter incubation periods at higher temperature (e.g., room temperature) may be used. After a period of time to allow for the ligand to bind to the substrate, the assay wells may be aspirated and a blocking buffer (e.g., 1% BSA in 50 mM imidizole buffer, pH 7.2) may be added to block nonspecific binding. […] The fusion protein bound to the immobilized ligand may be detected in a variety of ways. […] The bound complex may be detected by adding a substrate for the secondary antibody complex, e.g., the alkaline phosphatase substrate, para-nitrophenylphosphate (PNPP), and measuring conversion of PNPP to para-nitrophenol (PNP) as an increase in absorbance at 405 nm. […] In the absence of ligand (i.e., coating with only BSA) there was no increase in absorbance. The binding assay of the present invention may be used to quantify ligand binding. […]

S100b = target: T2, S100b (Homo sapiens, UniProt P04271); test: In vitro ligand binding assay (ELISA), immobilized S100b
T2 sequence (P04271 1-92): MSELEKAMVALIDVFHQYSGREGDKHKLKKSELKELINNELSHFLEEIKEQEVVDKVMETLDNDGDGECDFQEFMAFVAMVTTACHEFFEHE
Method: as §1

[1] = target: T3, amyloid-beta (Amyloid Beta (1-40)) (Homo sapiens, UniProt P05067); test: In vitro ligand binding assay (ELISA), immobilized amyloid-beta
T3 construct: Amyloid Beta (1-40) from Biosource; purchased Biosource
T3 sequence (P05067 672-711 limits assumed): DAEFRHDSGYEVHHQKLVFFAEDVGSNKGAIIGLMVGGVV
Method: as §1

B1: TTP-3000: RAGE fusion protein: V domain of human RAGE (amino acids 1-136) linked to hinge-less CH2 and CH3 of human IgG1; SEQ ID NO: 17/19 (protein)
chain 1: MAAGTAVGAWVLVLSLWGAVVGAQNITARIGEPLVLKCKGAPKKPPQRLEWKLNTGRTEAWKVLSPQGGGPWDSVARVLPNGSLFLPAVGIQDEGIFRCQAMNRNGKETKSNYRVRVYQIPGKPEIVDSASELTAGPSVFLFPPKPKDTLMISRTPEVTCVVVDVSHEDPEVKFNWYVDGVEVHNAKTKPREEQYNSTYRVVSVLTVLHQDWLNGKEYKCKVSNKALPAPIEKTISKAKGQPREPQVYTLPPSRDELTKNQVSLTCLVKGFYPSDIAVEWESNGQPENNYKTTPPVLDSDGSFFLYSKLTVDKSRWQQGNVFSCSVMHEALHNHYTQKSLSLSPGK
chain 2: ENITARIGEPLVLKCKGAPKKPPQRLEWKLNTGRTEAWKVLSPQGGGPWDSVARVLPNGSLFLPAVGIQDEGIFRCQAMNRNGKETKSNYRVRVYQIPGKPEIVDSASELTAGPSVFLFPPKPKDTLMISRTPEVTCVVVDVSHEDPEVKFNWYVDGVEVHNAKTKPREEQYNSTYRVVSVLTVLHQDWLNGKEYKCKVSNKALPAPIEKTISKAKGQPREPQVYTLPPSRDELTKNQVSLTCLVKGFYPSDIAVEWESNGQPENNYKTTPPVLDSDGSFFLYSKLTVDKSRWQQGNVFSCSVMHEALHNHYTQKSLSLSPGK
modifications: synthetic three domain RAGE-Fc IgG fusion protein; synthetic three domain RAGE-Fc IgG fusion protein having signal sequence removed
specifically interact: binding to immobilized amphoterin (increase in absorbance at 405 nm) (amphoterin) | binding to immobilized S100b (increase in absorbance at 405 nm) (S100b) | binding to immobilized amyloid-beta (increase in absorbance at 405 nm) [1]

Reference: patent publication US20110110945A1, “Immunoglobulin Fusion Proteins and Methods of Making” (TransTech Pharma, Inc., priority 2007, published 2011)
